Results reported in the supplement of paper PMC9112550, “Optimization of the antimicrobial peptide Bac7 by deep mutational scanning” (BMC Biology, 2022).

Test system: Escherichia coli TOP10
Test: shrunken log2 fold change of peptide-encoding DNA abundance (4.5 h post-induction vs induction); higher = less antimicrobial activity (less host growth inhibition)
Conditions: time post-induction: 4.5 h; library: site-saturation at positions 5, 18, 19, 20
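Also: peptides expressed intracellularly from a pBAD plasmid library in pooled LB shake-flask culture, induced with 0.3% L-arabinose, DNA abundance read by NGS, three biological replicates, DESeq2 with apeglm shrinkage.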

Sequence: RRIRGRPPRLPRPRPRPNECPRP
- shrunken log2 fold change: 0.421

Sequence: RRIRNRPPRLPRPRPRPKFMPRP
- shrunken log2 fold change: -0.0904

Sequence: RRIRFRPPRLPRPRPRPCGLPRP
- shrunken log2 fold change: -0.00916

Sequence: RRIRRRPPRLPRPRPRPCYWPRP
- shrunken log2 fold change: 0.00692

Sequence: RRIRLRPPRLPRPRPRPNKLPRP
- shrunken log2 fold change: -0.307

Sequence: RRIRCRPPRLPRPRPRPDHDPRP
- shrunken log2 fold change: -0.265

Sequence: RRIRSRPPRLPRPRPRPDHRPRP
- shrunken log2 fold change: 0.0482

Sequence: RRIRHRPPRLPRPRPRPVPIPRP
- shrunken log2 fold change: 0.0935

Sequence: RRIRWRPPRLPRPRPRPCEEPRP
- shrunken log2 fold change: 0.0489

Sequence: RRIRCRPPRLPRPRPRPFEMPRP
- shrunken log2 fold change: -0.36

Sequence: RRIRGRPPRLPRPRPRPPVQPRP
- shrunken log2 fold change: 0.496

Sequence: RRIRKRPPRLPRPRPRPPNFPRP
- shrunken log2 fold change: 0.0909

Sequence: RRIRQRPPRLPRPRPRPWSTPRP
- shrunken log2 fold change: -0.0264

Sequence: RRIRPRPPRLPRPRPRPTELPRP
- shrunken log2 fold change: -0.126

Sequence: RRIRWRPPRLPRPRPRPGWIPRP
- shrunken log2 fold change: 0.207

Sequence: RRIRWRPPRLPRPRPRPIKWPRP
- shrunken log2 fold change: -0.18

Sequence: RRIRGRPPRLPRPRPRPRWHPRP
- shrunken log2 fold change: 0.522

Sequence: RRIRHRPPRLPRPRPRPDQPPRP
- shrunken log2 fold change: 0.183

Sequence: RRIRCRPPRLPRPRPRPWRGPRP
- shrunken log2 fold change: 0.185

Sequence: RRIRERPPRLPRPRPRPNKQPRP
- shrunken log2 fold change: -0.174

Sequence: RRIRPRPPRLPRPRPRPLCRPRP
- shrunken log2 fold change: 0.0255

Sequence: RRIRKRPPRLPRPRPRPGAIPRP
- shrunken log2 fold change: 0.238

Sequence: RRIRKRPPRLPRPRPRPPLYPRP
- shrunken log2 fold change: 0.948

Sequence: RRIRARPPRLPRPRPRPWGVPRP
- shrunken log2 fold change: 0.329

Sequence: RRIRKRPPRLPRPRPRPHCFPRP
- shrunken log2 fold change: 0.0684

Sequence: RRIRIRPPRLPRPRPRPKTFPRP
- shrunken log2 fold change: -0.0578

Sequence: RRIRHRPPRLPRPRPRPYPKPRP
- shrunken log2 fold change: -0.193

Sequence: RRIRTRPPRLPRPRPRPANVPRP
- shrunken log2 fold change: -0.0276

Sequence: RRIRIRPPRLPRPRPRPCIEPRP
- shrunken log2 fold change: -0.112

Sequence: RRIRLRPPRLPRPRPRPCKVPRP
- shrunken log2 fold change: 0.00893

Sequence: RRIRSRPPRLPRPRPRPEYIPRP
- shrunken log2 fold change: -0.0603

Sequence: RRIRERPPRLPRPRPRPFCWPRP
- shrunken log2 fold change: 0.0996

Sequence: RRIRKRPPRLPRPRPRPKERPRP
- shrunken log2 fold change: -0.0188

Sequence: RRIRWRPPRLPRPRPRPCKDPRP
- shrunken log2 fold change: -0.381

Sequence: RRIRCRPPRLPRPRPRPTMDPRP
- shrunken log2 fold change: -0.237

Sequence: RRIRCRPPRLPRPRPRPEGRPRP
- shrunken log2 fold change: 0.0128

Sequence: RRIRNRPPRLPRPRPRPNEKPRP
- shrunken log2 fold change: -0.00172

Sequence: RRIRNRPPRLPRPRPRPDTYPRP
- shrunken log2 fold change: -0.0291

Sequence: RRIRSRPPRLPRPRPRPNFAPRP
- shrunken log2 fold change: 0.245

Sequence: RRIRMRPPRLPRPRPRPNEDPRP
- shrunken log2 fold change: 0.186

Sequence: RRIRTRPPRLPRPRPRPGIGPRP
- shrunken log2 fold change: 0.17

Sequence: RRIRIRPPRLPRPRPRPVLSPRP
- shrunken log2 fold change: -0.311

Sequence: RRIRVRPPRLPRPRPRPYHAPRP
- shrunken log2 fold change: -0.00207

Sequence: RRIRPRPPRLPRPRPRPKAVPRP
- shrunken log2 fold change: 0.0993

Sequence: RRIRNRPPRLPRPRPRPWSHPRP
- shrunken log2 fold change: -0.17

Sequence: RRIRARPPRLPRPRPRPRSMPRP
- shrunken log2 fold change: 0.42

Sequence: RRIRQRPPRLPRPRPRPDERPRP
- shrunken log2 fold change: -0.00664

Sequence: RRIRLRPPRLPRPRPRPRGNPRP
- shrunken log2 fold change: 0.0735

Sequence: RRIRCRPPRLPRPRPRPMFSPRP
- shrunken log2 fold change: -0.48

Sequence: RRIRCRPPRLPRPRPRPDYRPRP
- shrunken log2 fold change: -0.0343

Sequence: RRIRDRPPRLPRPRPRPADLPRP
- shrunken log2 fold change: -0.0491

Sequence: RRIRCRPPRLPRPRPRPSGQPRP
- shrunken log2 fold change: -0.0552

Sequence: RRIRTRPPRLPRPRPRPKWPPRP
- shrunken log2 fold change: 1.51

Sequence: RRIRGRPPRLPRPRPRPFTHPRP
- shrunken log2 fold change: 0.0753

Sequence: RRIRFRPPRLPRPRPRPPVHPRP
- shrunken log2 fold change: 0.119

Sequence: RRIRHRPPRLPRPRPRPLNMPRP
- shrunken log2 fold change: -1.26

Sequence: RRIRRRPPRLPRPRPRPLQSPRP
- shrunken log2 fold change: 0.242

Sequence: RRIRNRPPRLPRPRPRPPVDPRP
- shrunken log2 fold change: 0.36

Sequence: RRIRNRPPRLPRPRPRPTATPRP
- shrunken log2 fold change: 0.433

Sequence: RRIRHRPPRLPRPRPRPHNMPRP
- shrunken log2 fold change: -0.364

Sequence: RRIRQRPPRLPRPRPRPWDGPRP
- shrunken log2 fold change: 0.199

Sequence: RRIRMRPPRLPRPRPRPTSPPRP
- shrunken log2 fold change: 0.278

Sequence: RRIRNRPPRLPRPRPRPSTDPRP
- shrunken log2 fold change: -0.0474

Sequence: RRIRNRPPRLPRPRPRPETCPRP
- shrunken log2 fold change: 0.262

Sequence: RRIRVRPPRLPRPRPRPVSGPRP
- shrunken log2 fold change: 0.0836

Sequence: RRIRNRPPRLPRPRPRPLSRPRP
- shrunken log2 fold change: -0.124

Sequence: RRIRLRPPRLPRPRPRPLSGPRP
- shrunken log2 fold change: 0.15

Sequence: RRIRVRPPRLPRPRPRPDYVPRP
- shrunken log2 fold change: -0.406

Sequence: RRIRHRPPRLPRPRPRPPEKPRP
- shrunken log2 fold change: -0.00804

Sequence: RRIRGRPPRLPRPRPRPQWCPRP
- shrunken log2 fold change: 0.216

Sequence: RRIRDRPPRLPRPRPRPHMTPRP
- shrunken log2 fold change: -0.0927

Sequence: RRIRMRPPRLPRPRPRPGVFPRP
- shrunken log2 fold change: 0.858

Sequence: RRIRERPPRLPRPRPRPIENPRP
- shrunken log2 fold change: 0.0371

Sequence: RRIRRRPPRLPRPRPRPWARPRP
- shrunken log2 fold change: 0.222

Sequence: RRIRTRPPRLPRPRPRPEDLPRP
- shrunken log2 fold change: 0.0657

Sequence: RRIRHRPPRLPRPRPRPHDDPRP
- shrunken log2 fold change: -0.0997

Sequence: RRIRWRPPRLPRPRPRPHCWPRP
- shrunken log2 fold change: 0.202

Sequence: RRIRRRPPRLPRPRPRPTMSPRP
- shrunken log2 fold change: 0.315

Sequence: RRIRTRPPRLPRPRPRPPRCPRP
- shrunken log2 fold change: 0.391

Sequence: RRIRIRPPRLPRPRPRPKPRPRP
- shrunken log2 fold change: 0.576

Sequence: RRIRSRPPRLPRPRPRPKKKPRP
- shrunken log2 fold change: 0.195

Sequence: RRIRYRPPRLPRPRPRPICDPRP
- shrunken log2 fold change: -0.269

Sequence: RRIRIRPPRLPRPRPRPVPKPRP
- shrunken log2 fold change: 0.0597

Sequence: RRIRMRPPRLPRPRPRPTVCPRP
- shrunken log2 fold change: 0.53

Sequence: RRIRERPPRLPRPRPRPHNYPRP
- shrunken log2 fold change: -0.612

Sequence: RRIRMRPPRLPRPRPRPQHEPRP
- shrunken log2 fold change: 0.212

Sequence: RRIRSRPPRLPRPRPRPTLTPRP
- shrunken log2 fold change: 0.206

Sequence: RRIRERPPRLPRPRPRPGNSPRP
- shrunken log2 fold change: -0.115

Sequence: RRIRDRPPRLPRPRPRPHERPRP
- shrunken log2 fold change: 0.0603

Sequence: RRIRSRPPRLPRPRPRPCSYPRP
- shrunken log2 fold change: -0.379

Sequence: RRIRIRPPRLPRPRPRPVFRPRP
- shrunken log2 fold change: -0.169

Sequence: RRIRTRPPRLPRPRPRPHHRPRP
- shrunken log2 fold change: -0.655

Sequence: RRIRRRPPRLPRPRPRPSRRPRP
- shrunken log2 fold change: -0.0701

Sequence: RRIRQRPPRLPRPRPRPIVGPRP
- shrunken log2 fold change: 0.0288

Sequence: RRIRERPPRLPRPRPRPAYEPRP
- shrunken log2 fold change: -0.00975

Sequence: RRIRCRPPRLPRPRPRPVIKPRP
- shrunken log2 fold change: -0.0948

Sequence: RRIRDRPPRLPRPRPRPHAVPRP
- shrunken log2 fold change: 0.163

Sequence: RRIRFRPPRLPRPRPRPFWNPRP
- shrunken log2 fold change: -0.00687

Sequence: RRIRKRPPRLPRPRPRPLQVPRP
- shrunken log2 fold change: 0.333

Sequence: RRIRNRPPRLPRPRPRPWRVPRP
- shrunken log2 fold change: 0.515

Sequence: RRIRSRPPRLPRPRPRPTGRPRP
- shrunken log2 fold change: 0.15

Sequence: RRIRYRPPRLPRPRPRPDAWPRP
- shrunken log2 fold change: 0.0522

Sequence: RRIRIRPPRLPRPRPRPFQWPRP
- shrunken log2 fold change: -0.192

Sequence: RRIRYRPPRLPRPRPRPKRQPRP
- shrunken log2 fold change: 0.00924

Sequence: RRIRFRPPRLPRPRPRPKFLPRP
- shrunken log2 fold change: -0.283

Sequence: RRIRERPPRLPRPRPRPFYTPRP
- shrunken log2 fold change: -0.629

Sequence: RRIRARPPRLPRPRPRPAYDPRP
- shrunken log2 fold change: 0.00165

Sequence: RRIRHRPPRLPRPRPRPAEMPRP
- shrunken log2 fold change: -0.01

Sequence: RRIRKRPPRLPRPRPRPDMFPRP
- shrunken log2 fold change: -0.258
